Results: patent US20160237160A1, “ANTI-TWEAKR ANTIBODIES AND USES THEREOF” (BAYER PHARMA AKTIENGESELLSCHAFT, priority 2013, published 2016)

Molecular target: TWEAKR (TNFRSF12A, FN14), human, on tumor cell lines (human) (UniProt Q9NP84)
Experiment: cell-based or functional assay

% Inhibition of proliferation, 786-O cells, 96h, 100 ng/ml: 12%
% Inhibition of proliferation, A253 cells, 72h, 300 ng/ml: > 100%
% Inhibition of proliferation, HT-29 cells, 24h, 300 ng/ml: 98%
% Inhibition of proliferation, LOVO cells, 72h, 100 ng/ml: 53%
% Inhibition of proliferation, NCI-H1975 cells, 72h, 100 ng/ml: 56%
% Inhibition of proliferation, SW480 cells, 72h, 100 ng/ml: 0%
Fold induction of Caspase 3/7, 786-O cells, 300 ng/ml: 1.45 fold
Fold induction of Caspase 3/7, A253 cells, 300 ng/ml: 1.53 fold
Fold induction of Caspase 3/7, HT-29 cells, 300 ng/ml: 2.31 fold
Fold induction of Caspase 3/7, NCI-H322 cells, 100 ng/ml: 1.39 fold
Fold induction of Caspase 3/7, WiDr cells, 300 ng/ml: 1.22 fold
Substance: recombinant human TWEAK (R&D, #1090-TW-025/CF) (ligand)
